Among the data in the supplement of paper PMC5998384 are melting temperature and thermal stability score values, retold here.

For series [1], the system named is HeLa Kyoto. The experiment in a line: melting temperature (median over replicates), in situ; higher = more thermally stable.
Series [2] relates to HeLa Kyoto. As to the kind of experiment: thermal stability score vs G1/S (z-score of summed log2 fold changes over temperatures); higher = more thermally stable than in G1/S.
Where [3] appears, read: cell cycle stage: early G1 (4.5 h after nocodazole release).
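For melting temperature (median over replicates), in situ in this document: HeLa Kyoto cells synchronized by double thymidine or nocodazole block, proteins quantified by TMT10plex mass spectrometry, three independent biological replicates.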
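For thermal stability score vs G1/S (z-score of summed log2 fold changes over temperatures) in this document: synchronized HeLa Kyoto cells, proteins quantified by TMT10plex mass spectrometry, three biological replicates, mitosis taken 0.5 h after nocodazole release, G1/S directly after double thymidine block.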

Chain of PDK1 (chain, as listed by the source): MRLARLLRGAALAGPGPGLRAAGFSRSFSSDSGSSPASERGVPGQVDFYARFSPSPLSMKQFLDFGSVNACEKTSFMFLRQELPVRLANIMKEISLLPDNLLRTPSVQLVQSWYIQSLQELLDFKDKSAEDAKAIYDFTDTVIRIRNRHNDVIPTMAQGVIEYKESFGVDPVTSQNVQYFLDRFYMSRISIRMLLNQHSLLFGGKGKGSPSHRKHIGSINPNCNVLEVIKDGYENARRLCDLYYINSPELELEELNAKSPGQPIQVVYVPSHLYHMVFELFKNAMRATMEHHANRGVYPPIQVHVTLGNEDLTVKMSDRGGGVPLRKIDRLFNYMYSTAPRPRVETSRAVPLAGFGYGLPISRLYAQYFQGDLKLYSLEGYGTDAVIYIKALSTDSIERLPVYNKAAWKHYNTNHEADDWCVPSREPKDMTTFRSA
Chain of ARF1 (chain, as listed by the source): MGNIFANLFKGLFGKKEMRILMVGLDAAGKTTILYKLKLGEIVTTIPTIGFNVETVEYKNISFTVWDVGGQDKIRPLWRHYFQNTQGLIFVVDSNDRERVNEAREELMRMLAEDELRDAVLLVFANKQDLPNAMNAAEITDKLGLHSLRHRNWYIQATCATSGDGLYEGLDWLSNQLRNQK

ARF1: the melting temperature in series [1] (cell cycle stage: G1/S) stood at 59.6 °C; in series [1] (cell cycle stage: mitosis), 57.8 °C.

Turning to KIF1B, the melting temperature in series [1] (cell cycle stage: G1/S) was 50.5 °C; in series [1] (cell cycle stage: mitosis), 52.2 °C.

The substance “MAAGQNGHEEWVGSAYLFVESSLDKVVLSDAYAHPQQKVAVYRALQAALAESGGSPDVLQMLKIHRSDPQLIVQLRFCGRQPCGRFLRAYREGALRAALQRSLAAALAQHSVPLQLELRAGAERLDALLADEERCLSCILAQQPDRLRDEELAELEDALRNLKCGSGARGGDGEVASAPLQPPVPSLSEVKPPPPPPPAQTFLFQGQPVVNRPLSLKDQQTFARSVGLKWRKVGRSLQRGCRALRDPALDSLAYEYEREGLYEQAFQLLRRFVQAEGRRATLQRLVEALEENELTSLAEDLLGLTDPNGGLA [TRADD]” had a melting temperature in series [1] (cell cycle stage: G1/S) of 49.9 °C.

Turning to “MAGPAAAFRRLGALSGAAALGFASYGAHGAQFPDAYGKELFDKANKHHFLHSLALLGVPHCRKPLWAGLLLASGTTLFCTSFYYQALSGDPSIQTLAPAGGTLLLLGWLALAL [TMEM256]”, the melting temperature in series [1] (cell cycle stage: mitosis) was 56.6 °C.

In the case of “MAGSEPRSGTNSPPPPFSDWGRLEAAILSGWKTFWQSVSKERVARTTSREEVDEAASTLTRLPIDVQLYILSFLSPHDLCQLGSTNHYWNETVRDPILWRYFLLRDLPSWSSVDWKSLPDLEILKKPISEVTDGAFFDYMAVYRMCCPYTRRASKSSRPMYGAVTSFLHSLIIQNEPRFAMFGPGLEELNTSLVLSLMSSEELCPTAGLPQRQIDGIGSGVNFQLNNQHKFNILILYSTTRKERDRAREEHTSAVNKMFSRHNEGDDQQGSRYSVIPQIQKVCEVVDGFIYVANAEAHKRHEWQDEFSHIMAMTDPAFGSSGRPLLVLSCISQGDVKRMPCFYLAHELHLNLLNHPWLVQDTEAETLTGFLNGIEWILEEVESKRAR [FBXO4]”, the melting temperature in series [1] (cell cycle stage: mitosis) is 52 °C.

Substance “MAGYEYVSPEQLAGFDKYKYSAVDTNPLSLYVMHPFWNTIVKVFPTWLAPNLITFSGFLLVVFNFLLMAYFDPDFYASAPGHKHVPDWVWIVVGILNFVAYTLDGVDGKQARRTNSSTPLGELFDHGLDSWSCVYFVVTVYSIFGRGSTGVSVFVLYLLLWVVLFSFILSHWEKYNTGILFLPWGYDISQVTISFVYIVTAVVGVEAWYEPFLFNFLYRDLFTAMIIGCALCVTLPMSLLNFFRSYKNNTLKLNSVYEAMVPLFSPCLLFILSTAWILWSPSDILELHPRVFYFMVGTAFANSTCQLIVCQMSSTRCPTLNWLLVPLFLVVLVVNLGVASYVESILLYTLTTAFTLAHIHYGVRVVKQLSSHFQIYPFSLRKPNSDULGMEEKNIGL [EPT1]” returned a melting temperature in series [1] (cell cycle stage: G1/S) of 52.8 °C.

On to “MAIFRQLSLGAKATLAAVTVFVSMIASRSYLAESLELRAWRWLLRLQLALFVNSLLLIGSLYIWRSTVSNLCHSPAAESTCFQLWKVVVLAFLALAHSSFFTMFFLVAEEPYLFSLAAYSCLGAYIIMLFFLFILSGMEQAYQLLAWRSGRVVGSLEKTRKLVLRPALAVGVTAVLSVAGILNAAQPPAVKTVEVPIHQLPASMNNLKIVLLSDIHLGPTVGRTKMEMFVRMVNVLEPDITVIVGDLSDSEASVLRTAVAPLGQLHSHLGAYFVTGNHEYYTSDVSNWFALLESLHVQPLHNENVKISATRAQRGGGGSGSGSEDEDWICLAGVDDIEADILHYSGHGMDLDKALEGCSPDHTIILLAHQPLAAKRALQARPDINLILSGHTHAGQIFPLNVAAYLLNPFFAGLYQVAQATFVYVSPGTAYYGIPMRLGSRAEITELILQRSP [TMPPE]”, for which the melting temperature in series [1] (cell cycle stage: G1/S) and in series [1] (cell cycle stage: mitosis) was 53.6 °C in each case.

Consider “MALNGAEVDDFSWEPPTEAETKVLQARRERQDRISRLMGDYLLRGYRMLGETCADCGTILLQDKQRKIYCVACQELDSDVDKDNPALNAQAALSQAREHQLASASELPLGSRPAPQPPVPRPEHCEGAAAGLKAAQGPPAPAVPPNTDVMACTQTALLQKLTWASAELGSSTSLETSIQLCGLIRACAEALRSLQQLQH [SSSCA1]”, for which the figures for the melting temperature in series [1] (cell cycle stage: G1/S) and in series [1] (cell cycle stage: mitosis) were 53.3 °C and 53.5 °C, respectively.

Take “MLCLCLYVPVIGEAQTEFQYFESKGLPAELKSIFKLSVFIPSQEFSTYRQWKQKIVQAGDKDLDGQLDFEEFVHYLQDHEKKLRLVFKSLDKKNDGRIDAQEIMQSLRDLGVKISEQQAEKILKSMDKNGTMTIDWNEWRDYHLLHPVENIPEIILYWKHSTIFDVGENLTVPDEFTVEERQTGMWWRHLVAGGGAGAVSRTCTAPLDRLKVLMQVHASRSNNMGIVGGFTQMIREGGARSLWRGNGINVLKIAPESAIKFMAYEQIKRLVGSDQETLRIHERLVAGSLAGAIAQSSIYPMEVLKTRMALRKTGQYSGMLDCARRILAREGVAAFYKGYVPNMLGIIPYAGIDLAVYETLKNAWLQHYAVNSADPGVFVLLACGTMSSTCGQLASYPLALVRTRMQAQASIEGAPEVTMSSLFKHILRTEGAFGLYRGLAPNFMKVIPAVSISYVVYENLKITLGVQSR [SLC25A25]”: the thermal stability score in series [2] (setting [3]) was -0.983; in series [2] (cell cycle stage: mitosis) it was -0.000686.

For “MLIKEYHILLPMSLDEYQVAQLYMIQKKSREESSGEGSGVEILANRPYTDGPGGSGQYTHKVYHVGSHIPGWFRALLPKAALQVEEESWNAYPYTRTRYTCPFVEKFSIEIETYYLPDGGQQPNVFNLSGAERRQRILDTIDIVRDAVAPGEYKAEEDPRLYHSVKTGRGPLSDDWARTAAQTGPLMCAYKLCKVEFRYWGMQAKIEQFIHDVGLRRVMLRAHRQAWCWQDEWTELSMADIRALEEETARMLAQRMAKCNTGSEGSEAQPPGKPSTEARSAASNTGTPDGPEAPPGPDASPDASFGKQWSSSSRSSYSSQHGGAVSPQSLSEWRMQNIARDSENSSEEEFFDAHEGFSDSEEVFPKEMTKWNSNDFIDAFASPVEAEGTPEPGAEAAKGIEDGAQAPRDSEGLDGAGELGAEACAVHALFLILHSGNILDSGPGDANSKQADVQTLSSAFEAVTRIHFPEALGHVALRLVPCPPICAAAYALVSNLSPYSHDGDSLSRSQDHIPLAALPLLATSSSRYQGAVATVIARTNQAYSAFLRSPEGAGFCGQVALIGDGVGGILGFDALCHSANAGTGSRGSSRRGSMNNELLSPEFGPVRDPLADGVEGLGRGSPEPSALPPQRIPSDMASPEPEGSQNSLQAAPATTSSWEPRRASTAFCPPAASSEAPDGPSSTARLDFKVSGFFLFGSPLGLVLALRKTVMPALEAAQMRPACEQIYNLFHAADPCASRLEPLLAPKFQAIAPLTVPRYQKFPLGDGSSLLLADTLQTHSSLFLEELEMLVPSTPTSTSGAFWKGSELATDPPAQPAAPSTTSEVVKILERWWGTKRIDYSLYCPEALTAFPTVTLPHLFHASYWESADVVAFILRQVIEKERPQLAECEEPSIYSPAFPREKWQRKRTQVKIRNVTSNHRASDTVVCEGRPQVLSGRFMYGPLDVVTLTGEKVDVYIMTQPLSGKWIHFGTEVTNSSGRLTFPVPPERALGIGVYPVRMVVRGDHTYAECCLTVVARGTEAVVFSIDGSFTASVSIMGSDPKVRAGAVDVVRHWQDSGYLIVYVTGRPDMQKHRVVAWLSQHNFPHGVVSFCDGLTHDPLRQKAMFLQSLVQEVELNIVAGYGSPKDVAVYAALGLSPSQTYIVGRAVRKLQAQCQFLSDGYVAHLGQLEAGSHSHASSGPPRAALGKSSYGVAAPVDFLRKQSQLLRSRGPSQAEREGPGTPPTTLARGKARSISLKLDSEE [PITPNM1]”, the values for the thermal stability score in series [2] (setting [3]) and in series [2] (cell cycle stage: mitosis) were 0.586 and 0.463, respectively.

Take “MSGFENLNTDFYQTSYSIDDQSQQSYDYGGSGGPYSKQYAGYDYSQQGRFVPPDMMQPQQPYTGQIYQPTQAYTPASPQPFYGNNFEDEPPLLEELGINFDHIWQKTLTVLHPLKVADGSIMNETDLAGPMVFCLAFGATLLLAGKIQFGYVYGISAIGCLGMFCLLNLMSMTGVSFGCVASVLGYCLLPMILLSSFAVIFSLQGMVGIILTAGIIGWCSFSASKIFISALAMEGQQLLVAYPCALLYGVFALISVF [YIPF5]”: the thermal stability score in series [2] (setting [3]) was -0.124; in series [2] (cell cycle stage: mitosis) it was -0.361.

Take “MSLVPATNYIYTPLNQLKGGTIVNVYGVVKFFKPPYLSKGTDYCSVVTIVDQTNVKLTCLLFSGNYEALPIIYKNGDIVRFHRLKIQVYKKETQGITSSGFASLTFEGTLGAPIIPRTSSKYFNFTTEDHKMVEALRVWASTHMSPSWTLLKLCDVQPMQYFDLTCQLLGKAEVDGASFLLKVWDGTRTPFPSWRVLIQDLVLEGDLSHIHRLQNLTIDILVYDNHVHVARSLKVGSFLRIYSLHTKLQSMNSENQTMLSLEFHLHGGTSYGRGIRVLPESNSDVDQLKKDLESANLTANQHSDVICQSEPDDSFPSSGSVSLYEVERCQQLSATILTDHQYLERTPLCAILKQKAPQQYRIRAKLRSYKPRRLFQSVKLHCPKCHLLQEVPHEGDLDIIFQDGATKTPDVKLQNTSLYDSKIWTTKNQKGRKVAVHFVKNNGILPLSNECLLLIEGGTLSEICKLSNKFNSVIPVRSGHEDLELLDLSAPFLIQGTIHHYGCKQCSSLRSIQNLNSLVDKTSWIPSSVAEALGIVPLQYVFVMTFTLDDGTGVLEAYLMDSDKFFQIPASEVLMDDDLQKSVDMIMDMFCPPGIKIDAYPWLECFIKSYNVTNGTDNQICYQIFDTTVAEDVI [POT1]”: the thermal stability score in series [2] (setting [3]) is 0.878; in series [2] (cell cycle stage: mitosis), 1.25.

On to “MSSGNAKIGHPAPNFKATAVMPDGQFKDISLSDYKGKYVVFFFYPLDFTFVCPTEIIAFSDRAEEFKKLNCQVIGASVDSHFCHLAWVNTPKKQGGLGPMNIPLVSDPKRTIAQDYGVLKADEGISFRGLFIIDDKGILRQITVNDLPVGRSVDETLRLVQAFQFTDKHGEVCPAGWKPGSDTIKPDVQKSKEYFSKQK [PRDX1]”, for which the thermal stability score in series [2] (setting [3]) is -0.285; in series [2] (cell cycle stage: mitosis), -1.31.

Consider “MSSSLRPGPSRWRRAASIVLAAGWSRPETATPPSRPPPAEGFRLLLLQRSPHQGFMPGAHVFSGGVLDAADRSADWLGLFAPHHGPPRFGLGPAPFSRTAFPSLPDTDDHKTDNTGTLPEDVAFRICAVREAFEEAGVLLLRPRTSPPGPAPGPGLALEPPPGLASWRDRVRQDPRHFLRLCAHLDCTPDIWALHNWSAWLTPFLRGTTRRFDTAFFLCCLREPPPVYPDLAEVVGYQWSSPSEATESFLSKEIWLPPPQFYEVRRLANFASLSDLHKFCLGRALEGLERWLPIILLTADGMVHLLPGDELYLEDSDFLENLMSTEKKTEEIMKEGKQFHRIVTYHRHLYDIHVTVQPKYKHVYPKNSVVRKSHL [NUDT19]”, for which the thermal stability score in series [2] (setting [3]) is -1.25; in series [2] (cell cycle stage: mitosis) it was -1.33.

Consider “MWSGPPQPDQGLPPPLAAVPVPWKSTDPCQGHRESPGALVETSAGEEAQGQEGPAAAQLDVLRLRSSSMEIREKGSEFLKEELHRAQKELKLKDEECERLSKVREQLEQELEELTASLFEEAHKMVREANMKQAASEKQLKEARGKIDMLQAEVTALKTLVITSTPASPNRELHPQLLSPTKAGPRKGHSRHKSTSSTLCPAVCPAAGHTLTPDREGKEVDTILFAEFQAWRESPTLDKTCPFLERVYREDVGPCLDFTMQELSVLVRAAVEDNTLTIEPVASQTLPTVKVAEVDCSSTNTCALSGLTRTCRHRIRLGDSKSHYYISPSSRARITAVCNFFTYIRYIQQGLVRQDAEPMFWEIMRLRKEMSLAKLGFFPQEA [RAB3IL1]”, for which the thermal stability score is -0.0366 in series [2] (setting [3]) and 0.539 in series [2] (cell cycle stage: mitosis).

Turning to PDK1, the values for the thermal stability score in series [2] (setting [3]) and in series [2] (cell cycle stage: mitosis) were -0.202 and 0.796, respectively.
